The supplement of paper PMC9170038

System: MS2 coat protein
Assay: apparent KD of MS2 coat protein; designed switch direction (-1 OFF switch, 1 ON switch): -1; higher = weaker reporter binding
Outline: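 Apparent KD, taken as the median over clusters for each design, was obtained by curve-fitting normalised cluster fluorescence. Designed RNA switches had been transcribed on Illumina chips by stalled E. coli RNA polymerase and titrated with SNAP-549-labelled MS2 coat protein, doubling from 0.7 or 1.5 nM to 3 µM.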

[1] = input ligand: microRNA oligo, concentration not stated
[2] = Eterna round: R95, input ligand: FMN 200 uM
[3] = Eterna round: R95, input ligand: microRNA oligo, concentration not stated
[4] = Eterna round: R95, input ligand: none

Sequence: AUCAGCUCGUGAGGAUAUACAUGAGGAUCACCCAUGUGAUCAAUAGCAGCUUCGGCUGCAUACAUGUAGAAGGCACGAGCUGAU [ENG2/6-A3] (Eterna round: R96, puzzle: Exclusion NG 2)
- apparent KD of MS2 coat protein (input ligand: FMN 200 uM): 95.6 nM
- apparent KD of MS2 coat protein [1]: 19.9 nM
- apparent KD of MS2 coat protein (input ligand: none): 135 nM

Sequence: UUUUUCAAGCCAGAUCCUCACAUGAGGAUCACCCAUGUGCUCGUCUGUUUUCGCACUAUCACGUUUGUGAUAGUGCU [Level Boss var2-11] (puzzle: Sensor v3, turn-off variant 1)
- apparent KD of MS2 coat protein [2]: 297 nM
- apparent KD of MS2 coat protein [3]: 17.7 nM
- apparent KD of MS2 coat protein [4]: 307 nM

Sequence: GGUGGACAUGAGGAUCACCCAUGUGAGGAUAUCGGCUGGCUACUGGCUGACGGCUGCUCGAGAAGGCGCAUUGU [Exclusion 1 V87] (puzzle: Exclusion 1)
- apparent KD of MS2 coat protein [3]: 38.4 nM

Sequence: GACUGCUGAGGAUAUACAUGAGGAUCACCCAUGUGCUUCAGCAUCGAAAGAUGCAUUGGUAGAAGGUAGUAGUC [LRO-Excl3-06] (puzzle: Exclusion 3)
- apparent KD of MS2 coat protein [3]: 10.9 nM

Sequence: AGUACUGACACGUUGGUGUUAGUACAAUAAGCUUGUGACACAUGAGGAUCACCCAUGUCCUCAUAAGCUCGUCUUAU [salish99_TOv2_r2_094] (Eterna round: R96, puzzle: Sensor v3, turn-off variant 2)
- apparent KD of MS2 coat protein (input ligand: FMN 200 uM): 22.9 nM
- apparent KD of MS2 coat protein [1]: 468 nM
- apparent KD of MS2 coat protein (input ligand: none): 25.4 nM

Sequence: UGCAUGGUAGGAUAUACGGAACAUUAGGGUUUGUUGUGUGGACAUGAGGAUCACCCAUGUAGAAGGGCCGUGCU [JL-ex2-2.15 mat747 mod] (puzzle: Exclusion 2)
- apparent KD of MS2 coat protein [3]: 40.4 nM

Sequence: CUGAGCAGACGGAGAUCCAACAUGAGGAUCACCCAUGUCUCAAAAGCUUUUUGCUUGUCUUAUUCUCCUCUGUUCAC [Enradibe] (puzzle: Sensor v3, turn-off variant 1)
- apparent KD of MS2 coat protein [2]: 13.2 nM
- apparent KD of MS2 coat protein [3]: 31.6 nM
- apparent KD of MS2 coat protein [4]: 11.2 nM

Sequence: GUCGUGCGGCUUUGCUGUGCGGGUACAUGAGGAUCACCCAUGUAGGAUAUGGUGCGCUUUGCGUGCCAGAAGGGCGUGCGUUGG [salish99_ExNG3_r04_010] (Eterna round: R96, puzzle: Exclusion NG 3)
- apparent KD of MS2 coat protein (input ligand: FMN 200 uM): 45.7 nM
- apparent KD of MS2 coat protein [1]: 28 nM
- apparent KD of MS2 coat protein (input ligand: none): 36.4 nM

Sequence: GAAUCGCAUGUUAGGAUAUAUCUGUCGGAGUAUGGAUAGAAGGGACAUGAGGAUCACCCAUGUGAAGGCCGUUC [Eternabot (L1) Solution 58] (Eterna round: R97, puzzle: Brourd's mod of Exclusion 4)
- apparent KD of MS2 coat protein (input ligand: FMN 200 uM): 210 nM
- apparent KD of MS2 coat protein (input ligand: none): 90.1 nM

Sequence: AAAUGCGAGCGAGGAUAUCAGAAAGGAAGUGUAUGAGAAGGCGCACCGCGGGUAUCCGGACAUGAGGAUCACCCAUGUAGGCUC [PowerStrip EXNG 1.28] (Eterna round: R96, puzzle: Exclusion NG 1)
- apparent KD of MS2 coat protein (input ligand: FMN 200 uM): 23.2 nM
- apparent KD of MS2 coat protein [1]: 17.8 nM
- apparent KD of MS2 coat protein (input ligand: none): 29.5 nM

Sequence: GCACGCAAAGGAUAUCGGAAAGAAAACAUGAGGAUCACCCAUGUAUAUAUCAAAUGGGUGCGAGAAGGUUGAGUGA [Xeleonge] (puzzle: Exclusion 5)
- apparent KD of MS2 coat protein [2]: 192 nM
- apparent KD of MS2 coat protein [3]: 60 nM
- apparent KD of MS2 coat protein [4]: 94 nM

Sequence: CCGGAAGUACAGGAUAUCGUAACGGAAACGUUACGAGAAGGGUAUACAUGAGGAUCACCCAUGUGUCCUACCGG [Mat - Exclusion 6 - Eli Mod - D93] (puzzle: Exclusion 6)
- apparent KD of MS2 coat protein [3]: 22.6 nM

Sequence: CUGAUGUGAGGAUAUCUAAAAGAAACUGGGCAAAAUACCAGAGAGAAGGCACAUGAGGAUCACCCAUGUAACGA [Rabigeri] (puzzle: Exclusion 4)
- apparent KD of MS2 coat protein [3]: 19.5 nM

Sequence: AAGGCGUCAGGAUAUCCAAUAUAUGACAUGAGGAUCACCCAUGUUUCCACUCGUACCUCCGGAGAAGGGACAAAUA [Ex5 #87] (Eterna round: R97, puzzle: Exclusion 5)
- apparent KD of MS2 coat protein (input ligand: FMN 200 uM): 35.6 nM
- apparent KD of MS2 coat protein (input ligand: none): 38 nM

Sequence: AGCAGACGAGGAUAUGAUAAUUAAUACAUGAGGAUCACCCAUGUAAUACUGAUCCAUGGAUCAGAAGGCGUCUGCU [E5/4-A1] (Eterna round: R97, puzzle: Exclusion 5)
- apparent KD of MS2 coat protein (input ligand: FMN 200 uM): 27.1 nM
- apparent KD of MS2 coat protein (input ligand: none): 17.6 nM

Sequence: GAGUGACAUGAGGAUCACCCAUGUGAGGAUAUCGGACGGACCUAGUUAGCUUCCGCCGCGAGAAGGCACAUCGG [Exclusion 1 V24] (puzzle: Exclusion 1)
- apparent KD of MS2 coat protein [3]: 63.1 nM

Sequence: UAUCCUCAAGUGAGGAUAUGACGGUCAAGACGCGUUCAGAAGGCACAUGAGGAUCACCCAUGUGAUAAAGGAAU [Eternabot (L2) Solution 38] (Eterna round: R97, puzzle: Brourd's mod of Exclusion 4)
- apparent KD of MS2 coat protein (input ligand: FMN 200 uM): 91.7 nM
- apparent KD of MS2 coat protein (input ligand: none): 20.6 nM

Sequence: AUACCACGAGGAUAUCGUCUAUAUUACAUGAGGAUCACCCAUGUUAUAUUUGUAAUGUUUCGAGAAGGCGUGUUUU [JR_E5_Sub081] (puzzle: Exclusion 5)
- apparent KD of MS2 coat protein [3]: 14.4 nM

Sequence: CCUCUACAUGAGGAUCACCCAUGUGAGGAUAUAGACCGGCCUAACGCGGGCUCGGGAGCUAGAAGGCACAUAGA [EX1 C.7] (Eterna round: R97, puzzle: Exclusion 1)
- apparent KD of MS2 coat protein (input ligand: FMN 200 uM): 70.8 nM
- apparent KD of MS2 coat protein (input ligand: none): 21.8 nM

Sequence: UACUGGACAGGAUAUGUUCUUGAGCACUUGAGGAUCACCCAAGUCAUCAAGAACUCAGGCACAGAAGGGUUUAUGG [salish99_ex5_r4_006] (Eterna round: R97, puzzle: Exclusion 5)
- apparent KD of MS2 coat protein (input ligand: FMN 200 uM): 25.5 nM
- apparent KD of MS2 coat protein (input ligand: none): 14.8 nM

Sequence: UAGCAGCGAGGAUAUACAGACAGGUCCAAUACGUGUCUUGGACUUGAGGAUCACCCAAGUAGAAGGCGCCACAG [salish99_ex2_r4_602] (Eterna round: R97, puzzle: Exclusion 2)
- apparent KD of MS2 coat protein (input ligand: FMN 200 uM): 104 nM
- apparent KD of MS2 coat protein (input ligand: none): 62 nM

Sequence: CGAAGUAGAAACCGAUCCUACAUGAGGAUCACCCAUGUAGCAAGACGUGCACGCGAAGCUCGUCAGACUACCAGAAA [salish99_TOv1_r3_016] (puzzle: Sensor v3, turn-off variant 1)
- apparent KD of MS2 coat protein [2]: 200 nM
- apparent KD of MS2 coat protein [3]: 213 nM
- apparent KD of MS2 coat protein [4]: 304 nM

Sequence: ACAAGCUCUUUGCAUCUUAGUUUUGUUGCUUCGUAUGUAACAUGAGGAUCACCCAUGUAAGACUGAUGUCGUCUUUU [JR_SV3TOV2_Sub087] (puzzle: Sensor v3, turn-off variant 2)
- apparent KD of MS2 coat protein [2]: 43.8 nM
- apparent KD of MS2 coat protein [3]: 30 nM
- apparent KD of MS2 coat protein [4]: 48.2 nM

Sequence: AGUACUAACACGAAAGUGUUAGUACAAUAAGCUUGUGGAACAUGAGGAUCACCCAUGUCCUCAUAAGCUCGUCUUAG [Mat - Sensor v3 - Turn-off var 2 - D26] (puzzle: Sensor v3, turn-off variant 2)
- apparent KD of MS2 coat protein [2]: 15.9 nM
- apparent KD of MS2 coat protein [3]: 62.3 nM
- apparent KD of MS2 coat protein [4]: 13 nM

Sequence: UUGUUACAUGAGGAUCACCCAUGUGAGGAUAUGAGGGUUAGCUUAAAUGGGCUGACUUUCAGAAGGCACAUGAA [JR_Ex1_Sub058] (Eterna round: R97, puzzle: Exclusion 1)
- apparent KD of MS2 coat protein (input ligand: FMN 200 uM): 327 nM
- apparent KD of MS2 coat protein (input ligand: none): 235 nM

Sequence: AAUACCCGAGGAUAUCUAAUUCGGCACAUGAGGAUCACCCAUGUGAUCUGACCUAGCCGAGGAGAAGGCGGGUCAG [Errizabe] (puzzle: Exclusion 5)
- apparent KD of MS2 coat protein [2]: 25.8 nM
- apparent KD of MS2 coat protein [3]: 12.9 nM
- apparent KD of MS2 coat protein [4]: 12.1 nM

Sequence: GAGUUAACAUGAGGAAUAUACAUGAGGAUCACCCAUGUUAACAAAUUUUUUGCUCGUCUUAUAACAACAAUUAACUC [Alarm 4 - Jieux - Sensor, turn-off variant 1] (Eterna round: R97, puzzle: Sensor, turn-off variant 1)
- apparent KD of MS2 coat protein (input ligand: FMN 200 uM): 434 nM
- apparent KD of MS2 coat protein (input ligand: none): 206 nM

Sequence: GGUACUAACACGAUAGUGUUAGUACAAUAAGCUUGUGUUACAUGAGGAUCACCCAUGUCCUCAUAAGCUCGUCUUAU [Mat - Sensor v3 - Turn-off var 2 - D56] (puzzle: Sensor v3, turn-off variant 2)
- apparent KD of MS2 coat protein [2]: 117 nM
- apparent KD of MS2 coat protein [3]: 102 nM
- apparent KD of MS2 coat protein [4]: 108 nM

Sequence: ACAUGAGGAUCACCCAUGUCCGGCUGGUCUGUUCCGGCUGUCGAGGAUAUAGUUCGGUGUUCGCGCUAGAAGGCGGGAGCUGGA [Aenatbe mod 52] (Eterna round: R96, puzzle: Exclusion NG 3)
- apparent KD of MS2 coat protein (input ligand: FMN 200 uM): 150 nM
- apparent KD of MS2 coat protein [1]: 104 nM
- apparent KD of MS2 coat protein (input ligand: none): 123 nM

Sequence: AACAAGGGUUAAUGUACGGACAUGAGGAUCACCCAUGUCCACGGAUGUGUGGAGAGGUCCUCUUUGGCUCGUCUUAU [Cac Sensor turn off var1 sub10] (Eterna round: R97, puzzle: Sensor, turn-off variant 1)
- apparent KD of MS2 coat protein (input ligand: FMN 200 uM): 47.8 nM
- apparent KD of MS2 coat protein (input ligand: none): 87.8 nM

Sequence: UUGUUGUAUGUAGGAUAUGCAUAUUAUUGUUAUGCAGAAGGACAUGAGGAUCACCCAUGUAUAUUAUUAUUAUAUGUUAUAUAU [Title] (Eterna round: R96, puzzle: Exclusion NG 1)
- apparent KD of MS2 coat protein (input ligand: FMN 200 uM): 35.1 nM
- apparent KD of MS2 coat protein [1]: 21 nM
- apparent KD of MS2 coat protein (input ligand: none): 28 nM

Sequence: AGUGGGUCAGGAUAUUCUAUUAAUUACAUGAGGAUCACCCAUGUGAAUGGACAAGGGUGUGAAGAAGGGACUUGCG [Omei Ex5 A17d] (Eterna round: R97, puzzle: Exclusion 5)
- apparent KD of MS2 coat protein (input ligand: FMN 200 uM): 324 nM
- apparent KD of MS2 coat protein (input ligand: none): 546 nM

Sequence: GUGUACAGAGGAUAUGCACGAGUAGUUACGAAAGUAACUAUACAUGAGGAUCACCCAUGUAGAAGGCUGUACAC [Dot plot directed v3] (puzzle: Exclusion 2)
- apparent KD of MS2 coat protein [3]: 12.2 nM

Sequence: GCUCAGAUGACAGGAUAUCACGCCUGGCAGAUGGGCGACAUGAGGAUCACCCAUGUCCAGCACGAUGAGAAGGGUUAUCGGGCG [Ririorti] (Eterna round: R96, puzzle: Exclusion NG 2)
- apparent KD of MS2 coat protein (input ligand: FMN 200 uM): 195 nM
- apparent KD of MS2 coat protein [1]: 94.2 nM
- apparent KD of MS2 coat protein (input ligand: none): 96.4 nM
